In assay [1] the target is T1, LAMP1-Tn peptide Biotin-CEQDRPSPTTAPPAPPSPSP (human, N-terminal biotin; O-linked GalNAc on the serine at position 7 and the threonines at positions 9 and 10).
T1 construct: Synthetic 20-mer glycopeptide made by FMOC synthesis; also called LAMP1 glycopeptide; glycosylated LAMP1 peptide
T1 peptide: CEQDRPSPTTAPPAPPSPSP
As to the kind of experiment: BLI (Octet), peptide on biosensor, apparent affinity (Example 3). Here is the method:
Antibody affinity and epitope binning of monoclonal antibodies can be assessed against specific antigens using BLI. […] The affinity is determined by fitting the binding curve to a specific model: a 1:1 monovalent model or a 2:1 bivalent model. The error (>95% confidence) is calculated by how close the generated curve matches the model.
To characterize the cross-reactivity between mAb237 the anti-glyco-LAMP1 antibodies 3C7, 13C3, and 13G2, the affinities of mAb237, 3C7, 13C3, and 13G2 against the glycosylated LAMP1 peptide, the unglycosylated LAMP1 peptide, and the podoplanin glycopeptide were determined by Octet. Table 8 summarizes the dissociation constants (Kd) for mAb237, 3C7, 13C3, and 13G2 against the glycosylated LAMP1 peptide, the unglycosylated LAMP1 peptide, and the podoplanin glycopeptide. No cross reactivity was observed despite the sequence similarities observed between mAb237 and 3C7, 13C3, and 13G2.
On the technique in general: In BLI a coated tip is dipped into the sample, and binding shifts an interference pattern.

The target of assay [2] is T1, LAMP1-Tn peptide …. As to the kind of experiment: SPR (Biacore), antibody immobilised, peptide as analyte. As for the experimental part:
Antibody affinity assays can be carried out using surface plasmon resonance (e.g., using a Biacore system (Cytiva)). […] The affinity is determined by fitting the binding curve to a specific model: kinetic fit (1:1 model) or if applicable heterogenous ligand binding model.
To characterize the binding specificities of 3C7, 13C3, and 13G2 for non-glycosylated and Tn-glycosylated LAMP1, flow cytometry analysis of the LAMP1 mouse antibodies on T47D COSMC-KO cells was performed. […] The affinities of 3C7, 13C3, and 13G2 against the LAMP1 glycopeptides were determined by Biacore and Octet. Table 7 summarizes dissociation constants (Kd) for 3C7, 13C3, and 13G2 against different glycoforms of LAMP1 peptide, as well as unglycosylated LAMP1 and MUC1-Tn.
(Surface plasmon resonance follows binding to a sensor surface in real time, without labels.)

Assay [3] deals with T1, LAMP1-Tn peptide …. In words: BLI (Octet), peptide on biosensor, apparent affinity.
The target in assay [4] is T2, LAMP1-Tn (T1) peptide Biotin-CEQDRPSPTTAPPAPPSPSP (human, N-terminal biotin; GalNAc on one threonine (label 'T1'). By the order of items in paragraph 452 and paragraph 453 this is the threonine at position 9).
T2 construct: Singly glycosylated form of the LAMP1 20-mer
T2 peptide: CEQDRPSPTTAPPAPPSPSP
Described as above.

B1: 3C7.2C11.1C9 (antibody, V domains shown)
VH: EVKLEESGGGLVQPGGSMKVSCGASGFTFSDAWMDWVRQSPEKGLEWVAEMRSKAFNHAIYYAESVKGRFTISRDDSKSRVYLQMNLLRPEDTGIYYCTPNWDEGFAYWGQGTLVTVSA
VL: DVMLTQTPLSLPVSLGDQASISCRSSQSLVHSNGNTYLHWYLQKPGQSPKLLINKVSNRFFGVPDRFSGSGSGTDFTLKISRVEAEDLGVYFCSQSTHVPRTFGGGTKLEIK
notes: Mouse monoclonal antibody from a hybridoma (Balb/c mice immunised with KLH-LAMP1-Tn glycopeptide)
In the case of B1, the Kd in assay [1] stood at 13.9 nM; in assay [2], 28.7 nM; in assay [3] it was 18.2 nM; in assay [4], 810 nM.
